Measured values: publication PMC11300603

Assays:
[1] = biological target: CpaF from C. crescentus (C. crescentus NA1000); assay: cryo-EM structure; 5 mg/mL CpaF with 4 mM ADP, 5 mM MgSO4 in total, 8 mM CHAPSO, 45 min at room temperature before vitrification; single particle, C2 symmetry
[2] = biological target: CpaF from C. crescentus (C. crescentus NA1000); assay: cryo-EM structure; 5 mg/mL CpaF without nucleotide addition, in the presence of Mg2+, 8 mM CHAPSO; single particle, C2 symmetry
[3] = biological target: CpaF from C. crescentus (C. crescentus NA1000); assay: cryo-EM structure; 5 mg/mL CpaF with 4 mM AMPPNP, 5 mM MgSO4 in total, 8 mM CHAPSO, 45 min at room temperature before vitrification; single particle, C2 symmetry

Measured: stoichiometry N

CpaF from C. crescentus (enzyme)
6: [1] | [2] | [3]
